In experiment [1] the target is Fc receptors (FcR) on human leukocytes (human). The experiment in a line: 125I-labelled IgG1 control on human leukocytes, 4 C.
Experiment [2] deals with Fc receptors (FcR) on cynomolgus leukocytes (cynomolgus). The experiment in a line: 125I-labelled IgG1 control on cynomolgus leukocytes, 4 C.

For human IgG1 control mAb (antibody), the specific binding as % of the total bound radioactivity in experiment [1] is 56%; in experiment [2], 51%.

Values taken from patent US20050136055A1.
